Data taken from patent US20240317834A1, “COMPOSITIONS AND METHODS FOR NEUROLOGICAL DISEASES” (CODA BIOTHERAPEUTICS, INC., priority 2020, published 2024).
Residue numbers refer to the chain shown, from its start. Names and notes keep the numbering of the source.

Assays:
rat DRG neurons = assay: Rheobase shift and evoked action potentials in rat DRG neurons (current clamp); format: cell-based; details: for Rheobase Shift; Rat DRG Neurons, Baseline: no ligand
Outline: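 Rat DRG neurons expressing engineered receptors, whole-cell current clamp at RT. ECS at pH 7.3; K-gluconate internal at pH 7.2. 500 ms steps from −200 to 700 pA with and without ligand. Rheobase taken as the smallest depolarising step that fires an action potential; input resistance from negative steps.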

Lenti-X 293T cells = assay: YFP fluorescence quenching anion reporter plate reader assay of engineered receptors stimulated with acetylcholine or a non-native ligand; format: cell-based; details: for percent quench of YFP fluorescence, 30 nM TC-6683: TC-6683 30 nM; for percent quench of YFP fluorescence, 300 nM TC-6683: TC-6683 300 nM; for percent quench of YFP fluorescence, 3 uM TC-6683: TC-6683 3 uM; for percent quench of YFP fluorescence, 30 uM TC-6683: TC-6683 30 uM; for percent quench of YFP fluorescence, 100 uM TC-6683: TC-6683 100 uM; for percent quench of YFP fluorescence, 100 uM ach: acetylcholine 100 uM; for percent quench of YFP fluorescence, 300 uM ach: acetylcholine 300 uM; for percent quench of YFP fluorescence, 500 uM ach: acetylcholine 500 uM; for percent quench of YFP fluorescence, 1 mM ach: acetylcholine 1 mM; for percent quench of YFP fluorescence, 3 mM ach: acetylcholine 3 mM; for percent quench of YFP fluorescence, 10 mM ach: acetylcholine 10 mM
Outline: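 Lenti-X 293T cells carrying a YFP anion reporter were transiently transfected with channel DNA and assayed the next day in HEPES-buffered ECS at pH 7.2. Ligand (acetylcholine or non-native ligand) was added in NaI-substituted ECS. Percent quench was the mean of the last 10 s relative to the 15 s pre-addition baseline.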

B1: CODA1055: engineered chimeric LGIC receptor, R101W, Y115E, Y210W in SEQ ID NO: 33 (protein)
chain: MRCSPGGVWLALAASLLHVSLQGEFQRKLYKELVKNYNPLERPVANDSQPLTVYFSLSLLQIMDVDEKNQVLTTNIWLQMSWTDHYLQWNVSEYPGVKTVWFPDGQIWKPDILLENSADERFDATFHTNVLVNSSGHCQYLPPGIFKSSCPMDLKNFPMDVQTCKLKFGSWSYGGWSLDLQMQEADISGYIPNGEWDLVGIPGKRSERFWECCKEPYPDVTFTVTMRRRMGYYLIQMYIPSLLIVILSWISFWINMDAAPARVGLGITTVLTMTTQSSGSRASLPKVSYVKAIDIWMAVCLLFVFSALLEYAAVNFVSRQHKELLRFRRKRRHHKSPMLNLFQEDEAGEGRFNFSAYGMGPACLQAKDGISVKGANNSNTTNPPPAPSKSPEEMRKLFIQRAKKIDKISRIGFPMAFLIFNMFYWIIYKIVRREDVHNQ
modifications: synthetic sequence of chimeric LGIC
Rat DRG neurons
  Rheobase Shift; Rat DRG Neurons, +TC-5619 @ EC90: 562 ± 35 pA
  Rheobase Shift; Rat DRG Neurons, Baseline: 83 ± 7 pA
Lenti-X 293T cells; 1 nM CNL001, first column
  YFP fluorescence quenching using CNL001: −12.889%
Lenti-X 293T cells; 1 nM CNL001, second column
  YFP fluorescence quenching using CNL001: −13.295%
Lenti-X 293T cells; 1 nM brd
  YFP fluorescence quenching using TC-5619/Bradanicline: −8.113%
Lenti-X 293T cells; 3 nM brd
  YFP fluorescence quenching using TC-5619/Bradanicline: −11.136%
Lenti-X 293T cells; 3 nM var, first column
  YFP fluorescence quenching using Varenicline: 0.468
Lenti-X 293T cells; 3 nM var, second column
  YFP fluorescence quenching using Varenicline: −10.015
Lenti-X 293T cells; 10 nM CNL001, first column
  YFP fluorescence quenching using CNL001: −10.401%
Lenti-X 293T cells; 10 nM CNL001, second column
  YFP fluorescence quenching using CNL001: −7.981%
Lenti-X 293T cells; 10 nM brd
  YFP fluorescence quenching using TC-5619/Bradanicline: 38.755%
Lenti-X 293T cells; 30 nM brd
  YFP fluorescence quenching using TC-5619/Bradanicline: 39.111%
Lenti-X 293T cells; 30 nM var, first column
  YFP fluorescence quenching using Varenicline: −15.532
Lenti-X 293T cells; 30 nM var, second column
  YFP fluorescence quenching using Varenicline: −14.462
Lenti-X 293T cells; 50 nM CNL001, first column
  YFP fluorescence quenching using CNL001: −1.972%
Lenti-X 293T cells; 50 nM CNL001, second column
  YFP fluorescence quenching using CNL001: −1.661%
Lenti-X 293T cells; 50 nM abt
  YFP fluorescence quenching using ABT-126: −21.36%
Lenti-X 293T cells; 100 nM CNL001, first column
  YFP fluorescence quenching using CNL001: 0.277%
Lenti-X 293T cells; 100 nM CNL001, second column
  YFP fluorescence quenching using CNL001: 4.325%
Lenti-X 293T cells; 100 nM abt
  YFP fluorescence quenching using ABT-126: −22.28%
Lenti-X 293T cells; 100 nM brd
  YFP fluorescence quenching using TC-5619/Bradanicline: 61.378%
Lenti-X 293T cells; 300 nM abt
  YFP fluorescence quenching using ABT-126: −14.63%
Lenti-X 293T cells; 300 nM brd
  YFP fluorescence quenching using TC-5619/Bradanicline: 52.398%
Lenti-X 293T cells; 300 nM var, first column
  YFP fluorescence quenching using Varenicline: −17.027
Lenti-X 293T cells; 300 nM var, second column
  YFP fluorescence quenching using Varenicline: −15.59
Lenti-X 293T cells; 500 nM var, first column
  YFP fluorescence quenching using Varenicline: −13.343
Lenti-X 293T cells; 500 nM var, second column
  YFP fluorescence quenching using Varenicline: −10.702
Lenti-X 293T cells; 1 uM CNL001, first column
  YFP fluorescence quenching using CNL001: 2.88%
Lenti-X 293T cells; 1 uM CNL001, second column
  YFP fluorescence quenching using CNL001: 3.259%
Lenti-X 293T cells; 1 uM abt
  YFP fluorescence quenching using ABT-126: −7.34%
Lenti-X 293T cells; 1 uM var, first column
  YFP fluorescence quenching using Varenicline: −6.604
Lenti-X 293T cells; 1 uM var, second column
  YFP fluorescence quenching using Varenicline: −7.612
Lenti-X 293T cells
  percent quench of YFP fluorescence, 30 nM TC-6683: −30.056%
  percent quench of YFP fluorescence, 300 nM TC-6683: −30.801%
  percent quench of YFP fluorescence, 3 uM TC-6683: −25.558%
  percent quench of YFP fluorescence, 30 uM TC-6683: −18.295%
  percent quench of YFP fluorescence, 100 uM TC-6683: −17.554%
  percent quench of YFP fluorescence, 100 uM ach: −15.63%
  percent quench of YFP fluorescence, 300 uM ach: −12.05%
  percent quench of YFP fluorescence, 500 uM ach: −12.87%
  percent quench of YFP fluorescence, 1 mM ach: −11.55%
  percent quench of YFP fluorescence, 3 mM ach: 12.68%
  percent quench of YFP fluorescence, 10 mM ach: 37.58%

B2: CODA1056: engineered chimeric LGIC receptor, R101F, Y115E, Y210W in SEQ ID NO: 33 (protein)
chain: B1 chain with W101F
modifications: synthetic sequence of chimeric LGIC
Rat DRG neurons
  Rheobase Shift; Rat DRG Neurons, +TC-5619 @ EC90: 632 ± 43 pA
  Rheobase Shift; Rat DRG Neurons, Baseline: 114 ± 12 pA
Lenti-X 293T cells; 1 nM CNL001, first column
  YFP fluorescence quenching using CNL001: −8.104%
Lenti-X 293T cells; 1 nM CNL001, second column
  YFP fluorescence quenching using CNL001: −12.153%
Lenti-X 293T cells; 1 nM brd
  YFP fluorescence quenching using TC-5619/Bradanicline: −7.894%
Lenti-X 293T cells; 3 nM brd
  YFP fluorescence quenching using TC-5619/Bradanicline: −11.812%
Lenti-X 293T cells; 10 nM CNL001, first column
  YFP fluorescence quenching using CNL001: −10.462%
Lenti-X 293T cells; 10 nM CNL001, second column
  YFP fluorescence quenching using CNL001: −4.735%
Lenti-X 293T cells; 10 nM brd
  YFP fluorescence quenching using TC-5619/Bradanicline: 36.211%
Lenti-X 293T cells; 30 nM brd
  YFP fluorescence quenching using TC-5619/Bradanicline: 40.624%
Lenti-X 293T cells; 50 nM CNL001, first column
  YFP fluorescence quenching using CNL001: −8.617%
Lenti-X 293T cells; 50 nM CNL001, second column
  YFP fluorescence quenching using CNL001: −1.606%
Lenti-X 293T cells; 50 nM abt
  YFP fluorescence quenching using ABT-126: −20.96%
Lenti-X 293T cells; 100 nM CNL001, first column
  YFP fluorescence quenching using CNL001: −1.243%
Lenti-X 293T cells; 100 nM CNL001, second column
  YFP fluorescence quenching using CNL001: 1.838%
Lenti-X 293T cells; 100 nM abt
  YFP fluorescence quenching using ABT-126: −21.95%
Lenti-X 293T cells; 100 nM brd
  YFP fluorescence quenching using TC-5619/Bradanicline: 65.869%
Lenti-X 293T cells; 300 nM abt
  YFP fluorescence quenching using ABT-126: −10.96%
Lenti-X 293T cells; 300 nM brd
  YFP fluorescence quenching using TC-5619/Bradanicline: 59.661%
Lenti-X 293T cells; 1 uM CNL001, first column
  YFP fluorescence quenching using CNL001: −0.567%
Lenti-X 293T cells; 1 uM CNL001, second column
  YFP fluorescence quenching using CNL001: 4.663%
Lenti-X 293T cells; 1 uM abt
  YFP fluorescence quenching using ABT-126: 10.79%
Lenti-X 293T cells
  percent quench of YFP fluorescence, 30 nM TC-6683: −19.889%
  percent quench of YFP fluorescence, 300 nM TC-6683: −22.443%
  percent quench of YFP fluorescence, 3 uM TC-6683: −12.623%
  percent quench of YFP fluorescence, 30 uM TC-6683: −10.728%
  percent quench of YFP fluorescence, 100 uM TC-6683: −10.959%
  percent quench of YFP fluorescence, 100 uM ach: −20.55%
  percent quench of YFP fluorescence, 300 uM ach: −19.32%
  percent quench of YFP fluorescence, 500 uM ach: −19.75%
  percent quench of YFP fluorescence, 1 mM ach: −14.08%
  percent quench of YFP fluorescence, 3 mM ach: 14.07%
  percent quench of YFP fluorescence, 10 mM ach: 25.7%
